Test results: patent US20180079819A1 (IMMUNOGEN, published 2018)
Like-named read-outs stand apart in the source and are kept apart here.

Tests used:
[1] = molecular target: T1, human CD123 (IL-3Rα, interleukin-3 receptor alpha chain) (human, UniProt P26951 19-378); experiment: flow cytometry on HNT-34 cells, apparent Kd against that of 7G3
T1 construct: CD123 on human cell lines (TF-1, HNT-34, MOLM-13 and other AML, B-ALL, CML and NHL lines) or on 300-19 cells stably expressing human CD123; also called CD123 antigen; human CD123 antigen

[2] = molecular target: T1, human CD123 (IL-3Rα, interleukin-3 …); experiment: flow cytometry on HNT-34 cells; apparent Kd
[3] = molecular target: T1, human CD123 (IL-3Rα, interleukin-3 …); experiment: cell-based or functional assay
[4] = molecular target: T1, human CD123 (IL-3Rα, interleukin-3 …); experiment: flow cytometry on HNT-34 cells, PE-conjugated goat anti-human secondary
[5] = molecular target: T2, IL3Rα (101-306) chimeric receptor protein: GMRα residues 1-114 fused to IL3Rα residues 101-306, His-tagged (human, UniProt P15509 23-114); experiment: ELISA on plate-coated His-tagged protein, A450
T2 construct: range 1-114; also called CRM domain of IL3Rα construct
T2 sequence: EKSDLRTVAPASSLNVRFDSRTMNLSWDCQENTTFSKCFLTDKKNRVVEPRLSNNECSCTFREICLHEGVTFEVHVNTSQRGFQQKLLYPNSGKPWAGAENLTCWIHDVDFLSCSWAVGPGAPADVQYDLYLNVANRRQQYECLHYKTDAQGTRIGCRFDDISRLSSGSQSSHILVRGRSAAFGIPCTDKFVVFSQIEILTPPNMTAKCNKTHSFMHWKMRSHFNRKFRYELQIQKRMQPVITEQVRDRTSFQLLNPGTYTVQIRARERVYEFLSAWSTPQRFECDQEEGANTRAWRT
Experimental: (§1) The chimeric and humanized anti-IL3Rα antibodies were tested in enzyme-linked immunosorbent assay (ELISA) format for binding to the IL-3Rαproteins described above. Briefly, each His-tagged IL-3Rαprotein purified by Ni Sepharose excel chromatography was diluted to 1 ng/mL in 50 mM sodium bicarbonate buffer pH 9.6, and 100 μL was added to each well. After a 16 hr incubation at 4° C., the plates were washed with Tris-buffered saline with 0.1% Tween-20 (TBST), then blocked with 200 μL blocking buffer (TBS with 1% BSA). Next, 100 μL of primary antibody, serially diluted in blocking buffer, was added in duplicate to the ELISA wells and incubated at room temperature for 1 hr. The plates were then washed 3 times with TBST before adding 100 μL of anti-human IgG (H+L)-HRP (Jackson ImmunoResearch) to each well. Once again the plates were incubated for 1 hr at room temperature followed by three washes with TBST. Finally, 100 μL of TMB one component HRP microwell substrate (Surmodics) was added to each well and incubated for 5 min. The reaction was stopped by adding 100 μL stopping solution (Surmodics) and absorbances were read at 450 nm.
(§2) Binding of the CD123 antibodies to the chimeric IL-3Rαproteins was evaluated in comparison to the wild type IL-3Rα.

[6] = molecular target: T3, extracellular domain of CD123/IL-3Rα (residues 1-306), histidine tagged (human, UniProt P26951 19-306); experiment: ELISA on plate-coated His-tagged protein, A450
T3 construct: Expressed in HEK 293T cells, purified on Ni Sepharose, coated on ELISA plates; also called wild type IL-3Rα; wild-type IL-3Rα construct
T3 sequence: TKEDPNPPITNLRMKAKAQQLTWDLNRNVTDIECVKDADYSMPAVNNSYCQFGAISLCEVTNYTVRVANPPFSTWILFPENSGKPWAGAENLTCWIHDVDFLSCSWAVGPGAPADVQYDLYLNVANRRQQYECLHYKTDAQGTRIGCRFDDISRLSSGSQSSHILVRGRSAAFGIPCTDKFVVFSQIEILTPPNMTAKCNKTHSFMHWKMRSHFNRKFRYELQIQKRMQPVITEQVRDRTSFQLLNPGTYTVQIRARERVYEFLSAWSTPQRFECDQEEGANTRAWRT
Experimental: as §1, §2

[7] = molecular target: T1, human CD123 (IL-3Rα, interleukin-3 …); experiment: cell-based or functional assay; remark: listed apart in the source
[8] = molecular target: T1, human CD123 (IL-3Rα, interleukin-3 …); experiment: flow cytometry on HNT-34 cells, PE-conjugated goat anti-human secondary; remark: listed apart in the source
[9] = molecular target: T1, human CD123 (IL-3Rα, interleukin-3 …); experiment: flow cytometry on HNT-34 cells; EC50 of the binding curve taken as apparent Kd
[10] = molecular target: T1, human CD123 (IL-3Rα, interleukin-3 …); experiment: flow cytometry on TF-1 cells; EC50 of the binding curve taken as apparent Kd; TF-1 cells
Experimental: Binding affinity was tested by flow cytometry using purified antibodies. […] TF-1 cells (5×10⁴ cells per sample) were incubated with varying concentrations of murine antibodies in 200 μL FACS buffer (DMEM medium supplemented with 2% normal goat serum). The cells were then pelleted, washed twice, and incubated for 1 hr with 100 μL of phycoerythrin (PE)-conjugated goat anti-mouse IgG-antibody (Jackson Laboratory). The cells were pelleted again, washed with FACS buffer and resuspended in 200 μL of PBS containing 1% formaldehyde. Samples were acquired using a FACSCalibur flow cytometer with the HTS multiwell sampler, or a FACS array flow cytometer, and analyzed using CellQuest Pro (all from BD Biosciences, San Diego, US). For each sample the geomean fluorescence intensity for FL2 was calculated and plotted against the antibody concentration in a semi-log plot. A dose-response curve was generated by non-linear regression and the EC₅₀ value of each curve, which corresponds to the apparent dissociation constant (Kd) of each antibody, was calculated using GraphPad Prism v4 (GraphPad software, San Diego, Calif.).

[11] = molecular target: T1, human CD123 (IL-3Rα, interleukin-3 …); experiment: flow cytometry on MOLM-13 cells; apparent Kd; MOLM-13 cells
[12] = molecular target: T1, human CD123 (IL-3Rα, interleukin-3 …); experiment: flow cytometry on HNT-34 cells, against muCD123-3 of Example 5

B1: huCD123-6Gv4.7S3 (antibody, human IgG1, kappa)
heavy: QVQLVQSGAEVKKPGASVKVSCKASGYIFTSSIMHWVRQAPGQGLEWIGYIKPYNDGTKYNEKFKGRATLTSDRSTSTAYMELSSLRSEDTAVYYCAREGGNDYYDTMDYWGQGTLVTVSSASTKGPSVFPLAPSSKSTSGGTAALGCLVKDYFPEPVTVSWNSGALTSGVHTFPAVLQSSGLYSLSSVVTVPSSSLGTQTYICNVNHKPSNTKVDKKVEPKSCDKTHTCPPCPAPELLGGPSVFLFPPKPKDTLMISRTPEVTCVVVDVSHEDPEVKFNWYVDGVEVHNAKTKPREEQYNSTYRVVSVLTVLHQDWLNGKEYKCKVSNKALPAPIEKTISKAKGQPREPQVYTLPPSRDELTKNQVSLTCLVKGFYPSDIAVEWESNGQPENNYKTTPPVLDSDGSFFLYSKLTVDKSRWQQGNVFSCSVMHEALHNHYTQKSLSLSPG
light: SIQMTQSPSSLSASVGDRVTITCRASQDINSYLSWFQQKPGKAPKTLIYRVNRLVDGVPSRFSGSGSGNDYTLTISSLQPEDFATYYCLQYDAFPYTFGQGTKVEIKRTVAAPSVFIFPPSDEQLKSGTASVVCLLNNFYPREAKVQWKVDNALQSGNSQESVTEQDSKDSTYSLSSTLTLSKADYEKHKVYACEVTHQGLSSPVTKSFNRGEC
notes: also called huCD123-6Gv4.7 clone (S3); CD123-6G4.7S3
- fold higher affinity than the 7G3 antibody [1]: ≥ 30 fold
- Kd [2]: ~0.06 nM
- IC50, inhibition of IL-3 dependent proliferation of TF-1 cells [3]: 0.02 nM
- EC50 (read off the curve) [4]: ~0.05 nM

B2: huCD123-6Gv4.7 (antibody, human IgG1, kappa)
heavy: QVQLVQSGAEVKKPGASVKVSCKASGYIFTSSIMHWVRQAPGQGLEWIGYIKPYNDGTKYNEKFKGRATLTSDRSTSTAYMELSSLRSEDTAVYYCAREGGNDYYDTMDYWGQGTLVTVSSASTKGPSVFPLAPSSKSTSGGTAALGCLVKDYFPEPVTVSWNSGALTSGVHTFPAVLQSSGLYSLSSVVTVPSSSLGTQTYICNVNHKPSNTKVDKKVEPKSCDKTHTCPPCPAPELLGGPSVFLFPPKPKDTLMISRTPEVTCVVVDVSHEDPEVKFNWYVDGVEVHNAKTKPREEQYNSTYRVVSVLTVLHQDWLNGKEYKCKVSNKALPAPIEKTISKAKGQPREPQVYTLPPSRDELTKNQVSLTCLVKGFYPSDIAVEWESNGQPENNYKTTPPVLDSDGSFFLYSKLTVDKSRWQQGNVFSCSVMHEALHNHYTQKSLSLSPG
light: DIQMTQSPSSLSASVGDRVTITCRASQDINSYLSWFQQKPGKAPKTLIYRVNRLVDGVPSRFSGSGSGNDYTLTISSLQPEDFATYYCLQYDAFPYTFGQGTKVEIKRTVAAPSVFIFPPSDEQLKSGTASVVCLLNNFYPREAKVQWKVDNALQSGNSQESVTEQDSKDSTYSLSSTLTLSKADYEKHKVYACEVTHQGLSSPVTKSFNRGEC
notes: CDR-grafted humanized antibody; also called version 4.7 (VL Gv4 and VH Gv7)
- EC50 [5]: 0.145 nM
- EC50 [6]: 0.106 nM

B3: huCD123-6Gv4.7S2 (antibody, human IgG1, kappa)
heavy: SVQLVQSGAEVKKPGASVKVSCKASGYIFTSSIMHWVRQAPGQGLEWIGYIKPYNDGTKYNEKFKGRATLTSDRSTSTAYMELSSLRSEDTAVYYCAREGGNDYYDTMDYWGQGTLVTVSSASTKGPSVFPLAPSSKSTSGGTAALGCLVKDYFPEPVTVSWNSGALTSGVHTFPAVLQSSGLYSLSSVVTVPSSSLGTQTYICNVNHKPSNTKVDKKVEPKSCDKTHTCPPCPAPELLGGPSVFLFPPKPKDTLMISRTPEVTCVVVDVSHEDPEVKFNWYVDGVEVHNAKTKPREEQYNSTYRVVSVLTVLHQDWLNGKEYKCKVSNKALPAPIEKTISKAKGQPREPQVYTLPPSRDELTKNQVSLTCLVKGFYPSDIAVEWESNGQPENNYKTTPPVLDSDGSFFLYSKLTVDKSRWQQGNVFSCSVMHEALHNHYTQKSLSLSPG
light: DIQMTQSPSSLSASVGDRVTITCRASQDINSYLSWFQQKPGKAPKTLIYRVNRLVDGVPSRFSGSGSGNDYTLTISSLQPEDFATYYCLQYDAFPYTFGQGTKVEIKRTVAAPSVFIFPPSDEQLKSGTASVVCLLNNFYPREAKVQWKVDNALQSGNSQESVTEQDSKDSTYSLSSTLTLSKADYEKHKVYACEVTHQGLSSPVTKSFNRGEC
notes: CDR-grafted humanized antibody with an engineered N-terminal Ser on the heavy chain; also called huCD123-6Gv4.7 clone (S2)
- fold higher affinity than the 7G3 antibody [1]: ≥ 30 fold
- Kd [2]: ~0.06 nM
- IC50, inhibition of IL-3 dependent proliferation of TF-1 cells [3]: 0.02 nM

B4: huCD123-6Gv4.7-CysMab-D5 (antibody)
heavy: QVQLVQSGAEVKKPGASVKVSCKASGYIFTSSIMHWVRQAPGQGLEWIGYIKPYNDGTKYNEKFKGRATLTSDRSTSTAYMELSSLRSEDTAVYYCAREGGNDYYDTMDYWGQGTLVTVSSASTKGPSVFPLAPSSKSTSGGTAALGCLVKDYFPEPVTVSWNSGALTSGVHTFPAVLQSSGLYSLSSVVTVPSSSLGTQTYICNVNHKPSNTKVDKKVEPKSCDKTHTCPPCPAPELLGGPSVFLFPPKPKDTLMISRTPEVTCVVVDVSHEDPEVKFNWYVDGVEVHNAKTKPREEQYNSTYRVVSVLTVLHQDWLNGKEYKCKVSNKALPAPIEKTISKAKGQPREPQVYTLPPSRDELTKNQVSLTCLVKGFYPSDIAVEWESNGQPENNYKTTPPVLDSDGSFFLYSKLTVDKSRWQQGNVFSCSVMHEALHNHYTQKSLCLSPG
light: DIQMTQSPSSLSASVGDRVTITCRASQDINSYLSWFQQKPGKAPKTLIYRVNRLVDGVPSRFSGSGSGNDYTLTISSLQPEDFATYYCLQYDAFPYTFGQGTKVEIKRTVAAPSVFIFPPSDEQLKSGTASVVCLLNNFYPREAKVQWKVDNALQSGNSQESVTEQDSKDSTYSLSSTLTLSKADYEKHKVYACEVTHQGLSSPVTKSFNRGEC
modifications: D5 linked through the engineered Cys in the heavy chain CH3 domain (5th to the last residue of SEQ ID NO: 54; EU/OU position 442); 2 mol D5/mol antibody
notes: also called huCD123-CysMab-D5; Cys-linked D5 conjugate
- Fold-specificity IC50 control ADC/IC50 huCD123-CysMab-D5, EOL-1 cells [7]: 1000 fold
- Fold-specificity IC50 control ADC/IC50 huCD123-CysMab-D5, HNT-34 cells [7]: 1100 fold
- Fold-specificity IC50 control ADC/IC50 huCD123-CysMab-D5, KASUMI-3 cells [7]: 100 fold
- Fold-specificity IC50 control ADC/IC50 huCD123-CysMab-D5, KG-1 cells [7]: 95 fold
- Fold-specificity IC50 control ADC/IC50 huCD123-CysMab-D5, KO52 cells [7]: 100 fold
- Fold-specificity IC50 control ADC/IC50 huCD123-CysMab-D5, MOLM-1 cells [7]: > 167 fold
- Fold-specificity IC50 control ADC/IC50 huCD123-CysMab-D5, MV4-11 cells [7]: 2000 fold
- Fold-specificity IC50 control ADC/IC50 huCD123-CysMab-D5, Molm-13 cells [7]: 2000 fold
- Fold-specificity IC50 control ADC/IC50 huCD123-CysMab-D5, SHI-1 cells [7]: > 3.33 fold
- Fold-specificity IC50 control ADC/IC50 huCD123-CysMab-D5, SKM-1 cells [7]: 57 fold
- Fold-specificity IC50 control ADC/IC50 huCD123-CysMab-D5, THP-1 cells [7]: 167 fold
- Fold-specificity IC50 control ADC/IC50 huCD123-CysMab-D5, UCSD-AML1 cells [7]: 400 fold
- IC50, in vitro cytotoxicity on EOL-1 cells [7]: 2 pmol
- IC50, in vitro cytotoxicity on HNT-34 cells [7]: 1 pmol
- IC50, in vitro cytotoxicity on KASUMI-3 cells [7]: 3 pmol
- IC50, in vitro cytotoxicity on KG-1 cells [7]: 60 pmol
- IC50, in vitro cytotoxicity on KO52 cells [7]: 20 pmol
- IC50, in vitro cytotoxicity on MOLM-1 cells [7]: 120 pmol
- IC50, in vitro cytotoxicity on MV4-11 cells [7]: 1 pmol
- IC50, in vitro cytotoxicity on Molm-13 cells [7]: 0.5 pmol
- IC50, in vitro cytotoxicity on SHI-1 cells [7]: 6 pmol
- IC50, in vitro cytotoxicity on SKM-1 cells [7]: 7 pmol
- IC50, in vitro cytotoxicity on THP-1 cells [7]: 30 pmol
- IC50, in vitro cytotoxicity on UCSD-AML1 cells [7]: 1 pmol
- EC50 (read off the curve) [8]: ~0.08 nM

B5: muCD123-14 (antibody, mouse IgG1, kappa, V domains shown)
VH: EVKLVESGGDLVKPGGSLKLSCAASGFTFSNYAMSWVRQNSEKRLEWVATINSGGSFTYYPDSVKGRFTISRDNAKDSLYLQMSSLNSEDTAMYYCARQSEAYYGYDKRTWFAYWGQGTLVTVSS
VL: DILLTQSPAILSVSPGTRVSFSCRASQSVGTSIHWYQQRPNGFPRLLIKYASESISGIPSRFSGSGSGTDFTLNINSVESEDIADYYCQQSKSWPLTFGAGTKLELKR
notes: Murine monoclonal antibody purified from hybridoma supernatant; also called CD123Mu-14; CD123 Mu-14
- Kd [9]: 0.5 nM
- Kd [10]: 0.3 nM
- IC50, inhibition of IL-3 dependent proliferation of TF-1 cells [3]: 0.08 nM

B6: muCD123-6 (antibody, mouse IgG1, kappa, V domains shown)
VH: EFQLQQSGPELVKPGASVKMSCKASGYIFTSSIMHWMKQKPGQGLEWIGYIKPYNDGTKYNEKFKGKATLTSDKSSSTANMELNSLTSEDSAVYYCAREGGNDYYDTMDYWGQGTSVTVSS
VL: DIKMTQSPSSMYASLGERVTITCKASQDINSYLSWFQQKPGKSPKTLIYRVNRLVDGVPSRFSGSGSGQDYSLTISSLEYEDMGIYYCLQYDAFPYTFGGGTKLEIKR
notes: Murine monoclonal antibody purified from hybridoma supernatant; also called CD123Mu-6; CD123 Mu-6
- Kd [9]: 0.07 nM
- Kd [2]: ~0.06 nM
- Kd [10]: 0.1 nM
- IC50, inhibition of IL-3 dependent proliferation of TF-1 cells [3]: 0.05 nM

B7: muCD123-3 (antibody, mouse IgG1, kappa, V domains shown)
VH: EFQLQQSGPEVVKPGASVKMSCKASGYTFTSYVMHWMKQKPGQGLEWIGYIKPYKDGTKYNEKFKGKATLISDKPSSTAYMELSSLTSEDSAVYYCAREGENGYYDAMDYWGQGTSVTVSS
VL: DIQMTQSPSSLSASLGGKVTITCKASQDINKYIAWYQHKPGKGPRLLIHYTSTLQPGIPSRFSGSGSGRDYSFSISNLEPEDIATYYCLQYDNLLYTFGGGTKLELKR
notes: Murine monoclonal antibody purified from hybridoma supernatant; also called CD123Mu-3; CD123 Mu-3
- Kd [9]: 0.2 nM
- Kd [10]: 0.3 nM
- IC50, inhibition of IL-3 dependent proliferation of TF-1 cells [3]: 0.26 nM

B8: chCD123-3 (antibody, human IgG1, V domains shown)
VH: EFQLQQSGPEVVKPGASVKMSCKASGYTFTSYVMHWMKQKPGQGLEWIGYIKPYKDGTKYNEKFKGKATLISDKPSSTAYMELSSLTSEDSAVYYCAREGENGYYDAMDYWGQGTSVTVSS
VL: DIQMTQSPSSLSASLGGKVTITCKASQDINKYIAWYQHKPGKGPRLLIHYTSTLQPGIPSRFSGSGSGRDYSFSISNLEPEDIATYYCLQYDNLLYTFGGGTKLELKR
notes: human IgG1 and Kappa are spelled out for chCD123-6 and the same vectors and constant regions were used; also called chimeric CD123-3 antibody
- Kd [11]: 0.2 nM
- Kd [2]: 0.1 nM
- fold difference of Kd from the murine counterpart [12]: ≤ 2.5 fold
- EC50 [5]: 0.852 nM
- EC50 [6]: 0.274 nM
- IC50, inhibition of IL3-dependent proliferation of TF-1 cells [3]: 0.1 nM
